T1: human GIP receptor (human, UniProt P48546 22-466)
T1 sequence (looked up): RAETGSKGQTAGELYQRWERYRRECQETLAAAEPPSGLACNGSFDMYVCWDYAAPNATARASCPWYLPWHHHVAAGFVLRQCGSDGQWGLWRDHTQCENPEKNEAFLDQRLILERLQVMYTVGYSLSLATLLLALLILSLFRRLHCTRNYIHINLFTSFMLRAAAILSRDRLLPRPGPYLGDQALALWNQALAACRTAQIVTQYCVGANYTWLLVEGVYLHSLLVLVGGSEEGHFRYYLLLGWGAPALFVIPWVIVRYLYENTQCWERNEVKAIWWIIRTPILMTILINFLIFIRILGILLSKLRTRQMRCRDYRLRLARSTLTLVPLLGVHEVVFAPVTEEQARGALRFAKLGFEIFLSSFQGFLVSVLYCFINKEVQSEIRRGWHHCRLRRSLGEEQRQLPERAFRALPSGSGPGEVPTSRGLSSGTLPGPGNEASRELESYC

T2: rat GLP-1 receptor (rat, UniProt P32301 22-463)
T2 sequence (looked up): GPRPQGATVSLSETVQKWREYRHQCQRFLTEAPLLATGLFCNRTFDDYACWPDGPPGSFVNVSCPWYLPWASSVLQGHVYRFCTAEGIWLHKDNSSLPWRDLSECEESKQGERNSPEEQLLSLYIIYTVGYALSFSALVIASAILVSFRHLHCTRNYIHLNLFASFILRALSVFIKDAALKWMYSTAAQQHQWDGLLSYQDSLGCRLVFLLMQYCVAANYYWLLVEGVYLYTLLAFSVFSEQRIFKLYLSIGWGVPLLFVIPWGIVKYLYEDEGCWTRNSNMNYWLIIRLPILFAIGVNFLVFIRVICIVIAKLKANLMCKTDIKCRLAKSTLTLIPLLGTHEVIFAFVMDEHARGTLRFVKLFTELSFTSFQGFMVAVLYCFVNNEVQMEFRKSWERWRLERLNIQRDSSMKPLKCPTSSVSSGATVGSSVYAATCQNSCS

T3: mouse GIP receptor (mouse, UniProt Q0P543 19-460)
T3 sequence (looked up): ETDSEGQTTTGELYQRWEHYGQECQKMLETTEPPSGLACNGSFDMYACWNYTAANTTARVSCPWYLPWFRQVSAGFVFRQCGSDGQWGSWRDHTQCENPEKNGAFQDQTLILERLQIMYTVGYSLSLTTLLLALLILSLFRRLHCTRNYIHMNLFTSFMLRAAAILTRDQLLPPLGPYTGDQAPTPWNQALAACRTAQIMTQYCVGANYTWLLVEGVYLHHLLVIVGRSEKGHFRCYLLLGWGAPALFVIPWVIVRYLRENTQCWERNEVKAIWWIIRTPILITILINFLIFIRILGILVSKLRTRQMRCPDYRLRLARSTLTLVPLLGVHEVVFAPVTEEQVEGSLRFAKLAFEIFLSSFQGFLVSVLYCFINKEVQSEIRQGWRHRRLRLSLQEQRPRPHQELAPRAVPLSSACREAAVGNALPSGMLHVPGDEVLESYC

T4: rat GIP receptor (rat, UniProt P43219 19-455)
T4 sequence (looked up): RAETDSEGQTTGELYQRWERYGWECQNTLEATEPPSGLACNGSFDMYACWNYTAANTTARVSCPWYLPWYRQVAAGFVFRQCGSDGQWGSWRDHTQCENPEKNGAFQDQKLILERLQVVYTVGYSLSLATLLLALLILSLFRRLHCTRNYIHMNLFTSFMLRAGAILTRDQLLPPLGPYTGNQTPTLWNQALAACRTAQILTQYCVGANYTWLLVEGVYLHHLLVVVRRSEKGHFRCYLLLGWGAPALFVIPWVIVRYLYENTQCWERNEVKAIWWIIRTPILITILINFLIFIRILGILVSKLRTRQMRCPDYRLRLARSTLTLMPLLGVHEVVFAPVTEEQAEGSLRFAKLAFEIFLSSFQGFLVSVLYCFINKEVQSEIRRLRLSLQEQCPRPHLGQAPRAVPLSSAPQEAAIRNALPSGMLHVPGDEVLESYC

T5: mouse GLP-1 receptor (mouse, UniProt O35659 22-463)
T5 sequence (looked up): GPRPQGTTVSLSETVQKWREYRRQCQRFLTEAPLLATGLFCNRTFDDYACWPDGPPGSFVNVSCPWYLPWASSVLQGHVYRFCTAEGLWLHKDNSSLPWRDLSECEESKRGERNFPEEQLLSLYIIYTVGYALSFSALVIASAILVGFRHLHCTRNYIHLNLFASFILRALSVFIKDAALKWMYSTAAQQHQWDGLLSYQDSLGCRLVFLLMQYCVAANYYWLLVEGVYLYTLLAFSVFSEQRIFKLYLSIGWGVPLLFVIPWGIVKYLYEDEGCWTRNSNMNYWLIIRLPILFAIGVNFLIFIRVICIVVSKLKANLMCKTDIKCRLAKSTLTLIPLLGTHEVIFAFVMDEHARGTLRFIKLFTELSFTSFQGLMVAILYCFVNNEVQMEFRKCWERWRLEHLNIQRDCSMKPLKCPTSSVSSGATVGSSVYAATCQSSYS


Columns and labels:
Assay in all cases: cell-based or functional assay
human GIP receptor = target: T1, human GIP receptor
rat GLP-1 receptor = target: T2, rat GLP-1 receptor
mouse GIP receptor = target: T3, mouse GIP receptor
rat GIP receptor = target: T4, rat GIP receptor
human GLP-1 receptor = human GLP-1 receptor (human, UniProt P43220 24-463)
human glucagon receptor = human glucagon receptor (human, UniProt P47871 26-477)
mouse GLP-1 receptor = target: T5, mouse GLP-1 receptor

| Binder | cAMP EC50 (human GIP receptor) [nM] | cAMP EC50, Batch 2 (human GIP receptor) [nM] | cAMP EC50, Batch 3 (human GIP receptor) [nM] | cAMP EC50 (rat GLP-1 receptor) [nM] | cAMP EC50 (mouse GIP receptor) [nM] | cAMP EC50 (rat GIP receptor) [nM] | cAMP EC50 (human GLP-1 receptor) [nM] | cAMP EC50, Batch 2 (human GLP-1 receptor) [nM] | cAMP EC50, Batch 3 (human GLP-1 receptor) [nM] | cAMP EC50 (human glucagon receptor) [nM] | cAMP EC50, Batch 2 (human glucagon receptor) [nM] | cAMP EC50, Batch 3 (human glucagon receptor) [nM] | cAMP EC50 (mouse GLP-1 receptor) [nM] | cAMP EC50, Batch 2 (rat GLP-1 receptor) [nM] | cAMP EC50, Batch 2 (mouse GIP receptor) [nM] | cAMP EC50, Batch 2 (rat GIP receptor) [nM] | cAMP EC50, Batch 2 (mouse GLP-1 receptor) [nM] |
| --- | --- | --- | --- | --- | --- | --- | --- | --- | --- | --- | --- | --- | --- | --- | --- | --- | --- |
| IP243 (Fc fusion) YSEGTFTSDYSKLLEEEAQRLFIEWLVKGPAAAGGSGSTASSGSGSATGGGGAATHTCPPCPAPEF | 0.01 | 0.0069 | 0.0072 | 0.024 | 32 | 0.091 | 0.25 | 0.21 | 0.17 | > 2100 | 1400 | 1400 | 0.36 |  |  |  |  |
| IP200 (Fc fusion) YSQGTFTSDYSKILEEEAVRLFIEWLVKGPAAAGGSGSTASSGSGSATGGGGAATHTCPPCPAPEF | 0.018 | 0.012 |  |  |  |  | 0.12 | 0.077 |  | 0.11 | 0.083 |  |  | 0.028 | 160 | 0.25 | 0.34 |
| IP212 (Fc fusion) YSEGTFTSDYSKLLEEEAVREFIAWLVKGPAAAGGSGSTASSGSGSATGGGGAATHTCPPCPAPEF | 0.0081 |  |  | 0.034 | 190 | 0.12 | 0.087 |  |  | > 4000 |  |  | 0.35 |  |  |  |  |
| IP253 (Fc fusion) YSEGTFTSDYSKLLDEEAVRLFIEWLLAGAPPGGSGSTASSGSGSATGGGGAATHTCPPCPAPEF | 0.0093 |  |  | 0.21 | 0.61 | 0.024 | 0.26 |  |  | 78 |  |  | 3.8 |  |  |  |  |
| IP267 (Fc fusion) YSEGTFTSDYSKLLEEEHVRLFIEWLVKGPGGGGGSGGGGSGGGGSGGGGSATHTCPPC | 0.12 |  |  | 0.3 | > 278 | 0.81 | 1.5 |  |  | 5800 |  |  | 10 |  |  |  |  |
| IP258 (Fc fusion) YSEGTFTSDYSKLLDEEAVRLFIEWLVKGPGGGGGSGGGGSGGGGSGGGGSATHTCPPCPAPEF | 0.039 |  |  | 0.12 | 870 | 1.5 | 0.42 |  |  | > 19000 |  |  | 2.3 |  |  |  |  |
| IP262 (Fc fusion) YSEGTFTSDYSKLLEEEAVRLFIEWLLKGPGGGGGSGGGGSGGGGSGGGGSATHTCPPCPAPEF | 0.01 |  |  | 0.036 | 3 | 0.019 | 0.21 |  |  | 63 |  |  | 0.53 |  |  |  |  |
